# From publication PMC3998888
# Target: ALG-1(anti) (C. elegans (endogenous in whole animals))
# Test: co-IP; ALG-1 immunoprecipitated with a custom ALG-1-specific polyclonal antibody (Anaspec) from whole protein lysate of wild type or alg-1(anti) animals; precipitate probed by Western blot with anti-ALG-1, anti-DCR-1 and anti-AIN-1; signals quantified as ratios to ALG-1 and normalised to wild type
fold decrease in co-precipitated AIN-1 against wild type ALG-1,fold decrease in co-precipitated AIN-1 against wild type ALG-1 (average of biological replicates),fold increase in co-precipitated DCR-1 against wild type ALG-1,Substance
3 fold,2 fold,,AIN-1 (GW182) (natural protein)
,,4 fold,DCR-1 (Dicer) (from UniProt P34529 1-1910) (enzyme)
